US9127249B2, “Method for preparing metabolites of atorvastatin using bacterial cytochrome P450 and composition therefor” (INDUSTRY FOUNDATION OF CHONNAM NATIONAL UNIVERSITY, priority 2011, dated 2015)
Entries after “also recorded” stand apart in the source; their conditions may differ.

Tests used:
[1] = Turnover number of atorvastatin oxidation by CYP102A1 enzymes (HPLC); format: biochemical; settings: 80 μM atorvastatin, FIG. 13; for turnover number in oxidation of atorvastatin: 50 pmol enzyme, NADPH-generating system, 37° C., 30 minutes, production of 4-hydroxylated metabolite by HPLC
Procedure: It was examined whether the wild-type CYP102A1, the CYP102A1 mutants, and the chimeras derived from the CYP1.02A1 mutants may oxidize atorvastatin. Typical steady-state reactions was performed by adding 50 pmol CYP102A1 and 80 μM substrate to 0.25 ml of 100 mM potassium phosphate buffer solution (pH 7.4). In order to initiate reactions, the NADPH-generating system was added thereto (final concentrations: 10 mM glucose 6-phosphate, 0.5 mM NADP^+, and 1 IU […] per ml). A stock solution of atorvastatin (20 mM) was prepared in DMSO and diluted into the enzyme reaction solution to have a final organic solvent concentration of <1% (v/v).
In order to measure human CYP3A4 activity, 50 pmol P450, 100 pmol NADPH-P450 reductase (CPR), 100 pmol cytochrome b5, and 45 μM L-α-dilauroyl-sn-glycero-3-phosphocholine (DLPC) were used instead of 50 pmol CYP102A1. After the reaction solution was reacted for 30 minutes at 37° C., the reaction was terminated with 2-fold of ice-cold dichloromethane.
After centrifugation of the reaction mixture, a supernatant was removed and a solvent was evaporated under nitrogen gas and analyzed using HPLC. A sample (30 ul) was injected into Gemini C18 column (4.6 mm×150 mm, 5 um. Phenomenex. Torrance, Calif.). As a mobile phase A, water containing 0.1% formic acid/acetonitrile (80/20, v/v) was used, and as a mobile phase B, acetonitrile/0.1% formic acid (90/10, v/v) was used. The mobile phase A/B (70/30, v/v) was flowed at a rate of 1 ml·min^−1 using a gradient pump (LC-20AD, Shimadzu, Kyoto, Japan). Elution solutions were detected by UV at 260 nm.
In order to examine whether or not CYP102A1 (P450 BM3) may oxidize atorvastatin, the abilities of the wild-type CYP102A1 (P450 BM3), the mutants thereof, and the chimeras derived from the CYP102A1 mutants to oxidize atorvastatin were measured at a fixed substrate concentration (80 μM).
In order to recognize production rate of atorvastatin oxides by wild-type CYP102A1, CYP102A1 mutants, and chimeras derived from the CYP102A1 mutants, the turnover number was determined in the reaction using 80 μM statin.
The term “turnover number” means the number of substrate molecules that a molecule of an enzyme may convert into products per minute and indicates conversion frequency.
The production rate of 4-hydroxylated metabolite was determined by HPLC as described above.

[2] = Total turnover number (TTN) of atorvastatin oxidation; format: biochemical; settings: reacted for 4 hours
Procedure: In order to recognize production rate of atorvastatin metabolites by the CYP102A1 mutant (#16 in Table 2) and the chimeras (#16A1V2 and #17A1V2) derived from the CYP102A1 mutants, total turnover numbers (TTNs; mol product/mol catalyst) were determined in reactions using total 240 μM atorvastatin.
The term “total turnover number (TTN)” means the number of substrate molecules converted into metabolites by enzymes for the total reaction time.
The total turnover numbers (TTNs) were determined by comparing the results under three conditions. First, the reaction was performed by adding a NADPH-generating system at 37° C. for 1 hour in the presence of 80 μM substrate. In addition, second, after reaction was performed for 1 hour in the presence of 80 μM substrate, 80 μM substrate was additionally added to the reaction mixture, and the reaction was further performed for 1 hour. Finally, after reaction was performed for 1 hour in the presence of 80 μM substrate, 80 μM substrate was additionally added to the reaction mixture, and the reaction was further performed for 1 hour. Then, 80 μM substrate was additionally added to the reaction mixture, and the reaction was further performed for 2 hours.
The production rate of the atorvastatin metabolites was determined using HPLC. […]

Molecule	turnover number in oxidation of atorvastatin [1]	activity compared with human CYP3A4 (turnover number) [1]	activity compared with human CYP3A4 (total turnover number) [2]
Mutant #16: CYP102A1 mutant R47L/F81I/F87V/E143G/L188Q/E267V (SEQ ID NO 18) (protein, CYP102A1 mutant#16) MTIKEMPQPKTFGELKNLPLLNTDKPVQALMKIADELGEIFKFEAPGLVTRYLSSQRLIKEACDESRFDKNLSQALKFVRDIAGDGLVTSWTHEKNWKKAHNILLPSFSQQAMKGYHAMMVDIAVQLVQKWERLNADEHIEVPGDMTRLTLDTIGLCGFNYRFNSFYRDQPHPFITSMVRALDEAMNKQQRANPDDPAYDENKRQFQEDIKVMNDLVDKIIADRKASGEQSDDLLTHMLNGKDPETGEPLDDENIRYQIITFLIAGHVTTSGLLSFALYFLVKNPHVLQKAAEEAARVLVDPVPSYKQVKQLKYVGMVLNEALRLWPTAPAFSLYAKEDTVLGGEYPLEKGDELMVLIPQLHRDKTIWGDDVEEFRPERFENPSAIPQHAFKPFGNGQRACIGQQFALHEATLVLGMMLKHFDFEDHTNYELDIKETLTLKPEGFVVKAKSKKIPLGGIPSPSTEQSAKKVRKKAENAHNTPLLVLYGSNMGTAEGTARDLADIAMSKGFAPQVATLDSHAGNLPREGAVLIVTASYNGHPPDNAKQFVDWLDQASADEVKGVRYSVFGCGDKNWATTYQKVPAFIDETLAAKGAENIADRGEADASDDFEGTYEEWREHMWSDVAAYFNLDIENSEDNKSTLSLQFVDSAADMPLAKMHGAFSTNVVASKELQQPGSARSTRHLEIELPKEASYQEGDHLGVIPRNYEGIVNRVTARFGLDASQQIRLEAEEEKLAHLPLAKTVSVEELLQYVELQDPVTRTQLRAMAAKTVCPPHKVELEALLEKQAYKEQVLAKRLTMLELLEKYPACEMKFSEFIALLPSIRPRYYSISSSPRVDEKQASITVSVVSGEAWSGYGEYKGIASNYLAELQEGDTITCFISTPQSEFTLPKDPETPLIMVGPGTGVAPFRGFVQARKQLKEQGQSLGEAHLYFGCRSPHEDYLYQEELENAQSEGIITLHTAFSRMPNQPKTYVQHVMEQDGKKLIELLDQGAHFYICGDGSQMAPAVEATLMKSYADVHQVSEADARLWLQQLEEKGRYAKDVWAG	high turnover number		
Mutant #17: CYP102A1 mutant R47L/E64G/F81I/F87V/E143G/L188Q/E267V (SEQ ID NO 20) (protein, CYP102A1 mutant #17) MTIKEMPQPKTFGELKNLPLLNTDKPVQALMKIADELGEIFKFEAPGLVTRYLSSQRLIKEACDGSRFDKNLSQALKFVRDIAGDGLVTSWTHEKNWKKAHNILLPSFSQQAMKGYHAMMVDIAVQLVQKWERLNADEHIEVPGDMTRLTLDTIGLCGFNYRFNSFYRDQPHPFITSMVRALDEAMNKQQRANPDDPAYDENKRQFQEDIKVMNDLVDKIIADRKASGEQSDDLLTHMLNGKDPETGEPLDDENIRYQIITFLIAGHVTTSGLLSFALYFLVKNPHVLQKAAEEAARVLVDPVPSYKQVKQLKYVGMVLNEALRLWPTAPAFSLYAKEDTVLGGEYPLEKGDELMVLIPQLHRDKTIWGDDVEEFRPERFENPSAIPQHAFKPFGNGQRACIGQQFALHEATLVLGMMLKHFDFEDHTNYELDIKETLTLKPEGFVVKAKSKKIPLGGIPSPSTEQSAKKVRKKVENAHNTPLLVLYGSNMGTAEGTARDLADIAMSKGFAPQVATLDSHAGNLPREGAVLIVTASYNGHPPDNAKQFVDWLDQASADDVKGVRYSVFGCGDKNWATTYQKVPAFIDETLAAKGAENIADRGEADASDDFEGTYEEWREHMWSDVAAYFNLDIENSEDNKSTLSLQFVDSAADMPLAKMHGAFSANVVASKELQQLGSERSTRHLEIALPKEASYQEGDHLGVIPRNYEGIVNRVTARFGLDASQQIRLEAEEEKLAHLPLGKTVSVEELLQYVELQDPVTRTQLRAMAAKTVCPPHKVELEALLEKQAYKEQVLAKRLTMLELLEKYPACEMEFSEFIALLPSISPRYYSISSSPHVDEKQASITVSVVSGEAWSGYGEYKGIASNYLANLQEGDTITCFVSTPQSGFTLPKDSETPLIMVGPGTGVAPFRGFVQARKQLKEQGQSLGEAHLYFGCRSPHEDYLYQEELENAQNEGIITLHTAFSRVPNQPKTYVQHVMERDGKKLIELLDQGAHFYICGDGSQMAPDVEATLMKSYADVYEVSEADARLWLQQLEEKGRYAKDVWAG	high turnover number		
#16A1V2: chimera: heme domain of mutant #16 fused to V2 reductase domain of Table 4 (SEQ ID NO 22) (protein, chimera #16A1V2) MTIKEMPQPKTFGELKNLPLLNTDKPVQALMKIADELGEIFKFEAPGRVTRYLSSQRLIKEACDESRFDKNLSQALKFVRDFAGDGLFTSWTHEKNWKKAHNILLPSFSQQAMKGYHAMMVDIAVQLVQKWERLNADEHIEVPEDMTRLTLDTIGLCGFNYRFNSFYRDQPHPFITSMVRALDEAMNKLQRANPDDPAYDENKRQFQEDIKVMNDLVDKIIADRKASGEQSDDLLTHMLNGKDPETGEPLDDENIRYQIITFLIAGHETTSGLLSFALYFLVKNPHVLQKAAEEAARVLVDPVPSYKQVKQLKYVGMVLNEALRLWPTAPAFSLYAKEDTVLGGEYPLEKGDELMVLIPQLHRDKTIWGDDVEEFRPERFENPSAIPQHAFKPFGNGQRACIGQQFALHEATLVLGMMLKHFDFEDHTNYELDIKETLTLKPEGFVVKAKSKKIPLGGIPSPSTEQSAKKVRKKVENAHNTPLLVLYGSNMGTAEGTARDLADIAMSKGFAPQVATLDSHAGNLPREGAVLIVTASYNGHPPDNAKQFVDWLDQASADDVKGVRYSVFGCGDKNWATTYQKVPAFIDETLAAKGAENIADRGEADASDDFEGTYEEWREHMWSDVAAYFNLDIENSEDNKSTLSLQFVDSAADMPLAKMHGAFSANVVASKELQQLGSERSTRHLEIALPKEASYQEGDHLGVIPRNYEGIVNRVTARFGLDASQQIRLEAEEEKLAHLPLGKTVSVEELLQYVELQDPVTRTQLRAMAAKTVCPPHKVELEALLEKQAYKEQVLAKRLTMLELLEKYPACEMEFSEFIALLPSISPRYYSISSSPHVDEKQASITVSVVSGEAWSGYGEYKGIASNYLANLQEGDTITCFVSTPQSGFTLPKDSETPLIMVGPGTGVAPFRGFVQARKQLKEQGQSLGEAHLYFGCRSPHEDYLYQEELENAQNEGIITLHTAFSRVPNQPKTYVQHVMERDGKKLIELLDQGAHFYICGDGSQMAPDVEATLMKSYADVYEVSEADARLWLQQLEEKGRYAKDVWAG	high turnover number; also recorded: most excellent turnover number	same activity as that of the human CYP3A4	activity higher than that of the human CYP3A4
